Residue numbers refer to the chain shown, from its start. Names and notes keep the numbering of the source. One block for each binder: values may come before it.
Legend:
[1] = molecular target: human CD112R, full length, expressed on cells (YTS-hCD112R; Jurkat-NFAT-luc-hCD112R) (human) (UniProt Q6DKI7); assay: cell-based or functional assay
[2] = molecular target: T1, human CD112R, full length, expressed on cells (YTS-hCD112R; Jurkat-NFAT-luc-hCD112R) (human, UniProt Q6DKI7 42-326); assay: FACS-based competition on YTS-hCD112R cells, competitor hCD112-ECD-hFc
T1 construct: whole, on cells; also called PVRIG; YTS-hCD112R cells
T1 sequence (looked up): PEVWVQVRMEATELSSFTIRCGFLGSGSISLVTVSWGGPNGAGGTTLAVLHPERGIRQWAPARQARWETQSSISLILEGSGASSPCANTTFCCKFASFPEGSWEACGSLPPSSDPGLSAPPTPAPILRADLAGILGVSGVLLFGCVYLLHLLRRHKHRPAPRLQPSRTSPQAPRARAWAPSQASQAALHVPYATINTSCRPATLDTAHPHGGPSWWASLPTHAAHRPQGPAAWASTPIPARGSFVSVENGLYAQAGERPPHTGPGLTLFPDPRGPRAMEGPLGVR
Text: (§1) Then cells were washed three times with PBS containing 0.5% BSA. Ligands binding to cells were detected by adding goat anti-human IgG-FITC Ab (Pierce-Thermo Fisher Scientific).

[3] = molecular target: T1, human CD112R, full length, expressed on …; assay: FACS competition on YTS-hCD112R cells against hCD112-ECD-hFc, ligand detected with goat anti-human IgG-FITC
Text: as §1

hCD112R-ECD-His6-Avi [4] = molecular target: T2, hCD112R-ECD-His6-Avi (human, UniProt Q6DKI7 42-172, biotinylated (Avi tag) in the ELISA assays); assay: SPR (Biacore T200), multi-cycle, 733-mIgG2a captured by Protein A/G, hCD112R-ECD-His6-Avi as analyte, 1:1 Langmuir model
T2 construct: range 42-172; Expressed in HEK 293F cells; Analyte in SPR, and captured on streptavidin in ELISA; also called biotinylated hCD112R-ECD-His6-Avi; not shown: C-terminal His6-Avi tag
T2 sequence (looked up): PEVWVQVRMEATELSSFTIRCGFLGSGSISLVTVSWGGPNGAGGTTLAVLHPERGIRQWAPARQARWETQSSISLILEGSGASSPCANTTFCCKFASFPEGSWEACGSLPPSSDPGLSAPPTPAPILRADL
Experimental: (§2) Protein A/G (Thermo Fisher) was covalently attached to surfaces of a CM5 sensor chip using an amine coupling kit (GE Healthcare). […] Binding kinetics were evaluated using a 1:1 Langmuir binding model. The association rates (ka), dissociation rates (kd), and affinity constants (KD) were calculated using Biacore T200 evaluation software.

hCD112R-ECD-His6-Avi [5] = molecular target: T2, hCD112R-ECD-His6-Avi; assay: SPR (Biacore T200), multi-cycle; 733-mIgG2a captured on Protein A/G, hCD112R-ECD-His6-Avi injected; 1:1 Langmuir
Experimental: as §2

hCD112R-ECD-His6-Avi [6] = molecular target: T2, hCD112R-ECD-His6-Avi; assay: SPR (Biacore T200), multi-cycle; 733-mIgG2a captured on Protein A/G, hCD112R-ECD-His6-Avi injected; 1:1 Langmuir (the text prints the rounded 0.2 nM)
Experimental: as §2

[7] = molecular target: T3, hCD112-ECD-hFc (extracellular domain of hCD112 fused to the Fc domain of human IgG1) (human, UniProt Q92692 32-360); assay: SPR (Biacore T200), single injection; hCD112R-ECD-mFc variant captured on anti-mFc Ab, hCD112-ECD-hFc injected
T3 construct: extracellular domain; also called hCD112 ligand; not shown: Fc domain of human IgG1
T3 sequence (looked up): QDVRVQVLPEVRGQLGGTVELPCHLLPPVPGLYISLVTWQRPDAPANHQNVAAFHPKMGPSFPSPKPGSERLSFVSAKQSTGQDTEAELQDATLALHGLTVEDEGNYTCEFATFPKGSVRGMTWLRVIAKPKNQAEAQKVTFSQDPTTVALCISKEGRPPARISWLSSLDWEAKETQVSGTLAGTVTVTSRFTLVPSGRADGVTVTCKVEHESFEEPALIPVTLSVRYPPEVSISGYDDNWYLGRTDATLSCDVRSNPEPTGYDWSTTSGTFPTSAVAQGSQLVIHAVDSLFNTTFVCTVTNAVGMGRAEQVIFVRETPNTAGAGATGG
Experimental: (§3) Kinetic analyses of the bindings of WT or mutated hCD112R-ECD-mFc proteins to H733 and hCD112-ECD were performed on a Biacore T200 instrument (Biacore, GE Healthcare). For the single-cycle SPR analysis, anti-mFc Ab (Thermo Fisher) was covalently attached to surfaces of a CM5 sensor chip using an amine coupling kit (GE Healthcare). WT or mutated hCD112R-ECD mFc fusion proteins were captured on the chip and H733-hIgG4 or hCD112-ECD-hFc were then injected. For the multi-cycle SPR analysis, anti-hFc Ab (Thermo Fisher) was covalently attached to surfaces of a CM5 sensor chip using an amine coupling kit (GE Healthcare). H733-hIgG4 or hCD112-ECD-hFc protein was captured on the chip and 2-fold serially diluted WT or mutated hCD112R-ECD-mFc proteins (3.125-100 nM) were then injected. Binding kinetics were evaluated using a 1:1 Langmuir binding model. The association rates (ka), dissociation rates (kd), and affinity constants (KD) were calculated using Biacore T200 evaluation software.

[8] = molecular target: T3, hCD112-ECD-hFc (extracellular domain of …); assay: SPR (Biacore T200), multi-cycle; hCD112-ECD-hFc captured on anti-hFc Ab, hCD112R-ECD-mFc variant injected [Cont') C]
Experimental: as §3

[9] = molecular target: T3, hCD112-ECD-hFc (extracellular domain of …); assay: SPR (Biacore T200), multi-cycle; hCD112-ECD-hFc captured on anti-hFc Ab, hCD112R-ECD-mFc variant injected (3.125-100 nM); 1:1 Langmuir [Cont') C]
Experimental: as §3

[10] = molecular target: T3, hCD112-ECD-hFc (extracellular domain of …); assay: SPR (Biacore T200), multi-cycle; hCD112-ECD-hFc captured on anti-hFc Ab, hCD112R-ECD-mFc WT injected (3.125-100 nM); 1:1 Langmuir [Cont') C]
Experimental: as §3

B2: anti-hCD112R mAb 733 (733-mIgG2a) (antibody, V domains shown)
VH: QVQLQQSGAELVRPGTSVKVSCKASGYAFTNYLIEWLKQRPGQGLEWIGVINPGHGFTNYNEKFKGKATLTADKSSSTAYMQLSSLTSDDSAVYFCARGEWDWYFDVWGAGTTVTVSS
VL: DIVMTQSQKFMSTSVGDRVSITCKASQNVGTAVAWYQQKPGQSPKLLIYSTSNRYTGVPDRFTGSGSGTDFTLTISNLQSEDLADYFCQQCSSYPFTFGSGTKLEIK
notes: VH and VL were cloned onto the constant regions of mouse IgG2a heavy and light chains (full-length mIgG2a, made in HEK 293F)
IC50 [2]: 0.29 µg/mL
IC50 (read off the curve) [3]: ~2 µg/mL
Kd (hCD112R-ECD-His6-Avi [4]): 0.2 nM
koff (hCD112R-ECD-His6-Avi [5]): 0.000888 s⁻¹
kon (hCD112R-ECD-His6-Avi [5]): 4.49e+06 M⁻¹ s⁻¹
Kd (hCD112R-ECD-His6-Avi [6]): 0.198 nM

B3: S67P (Fc fusion, human, UniProt Q6DKI7 42-172, looked up)
Fc fusion chain: T2 sequence (looked up) with S26P
notes: extracellular domain, amino acids 42-172; also called hCD112R-ECD-mFc S67P variant
binding result [7]: binds

B4: L72A (Fc fusion, human, UniProt Q6DKI7 42-172, looked up)
Fc fusion chain: T2 sequence (looked up) with L31A
notes: extracellular domain, amino acids 42-172; alanine-scanning variant; also called hCD112R-ECD-mFc L72A variant
binding result [8]: no binding

B5: H92A (Fc fusion, human, UniProt Q6DKI7 42-172, looked up)
Fc fusion chain: T2 sequence (looked up) with H51A
notes: extracellular domain, amino acids 42-172; alanine-scanning variant; also called hCD112R-ECD-mFc H92A variant
Kd [9]: 72.1 nM
koff [9]: 0.00532 s⁻¹
kon [9]: 73700 M⁻¹ s⁻¹

B6: E94A (Fc fusion, human, UniProt Q6DKI7 42-172, looked up)
Fc fusion chain: T2 sequence (looked up) with E53A
notes: extracellular domain, amino acids 42-172; alanine-scanning variant; also called hCD112R-ECD-mFc E94A variant
Kd [9]: 112 nM
koff [9]: 0.0126 s⁻¹
kon [9]: 112000 M⁻¹ s⁻¹

Second part, the binder after the results:

EC50 of luciferase production, Jurkat-NFAT-luc-hCD112R reporter cells with CHO-OKT3scFv hCD112 cells [1]: 0.69 µg/mL
B1: COM701 (humanized anti-hCD112R Ab developed by the Compugen Company, hIgG4) (antibody, from another filing, V domains shown)
VH: QVQLVQSGAEVKKPGASVKVSCKASGYTFTDYNINWVRQAPGQGLEWMGYIYPYIGGSGYAQKFQGRVTMTRDTSTSTVYMELSSLRSEDTAVYYCAREDKTARNAMDYWGQGTLVTVSS
VL: DIQMTQSPSSLSASVGDRVTITCRVSENIYSNLAWYQQKPGKAPKLLIYEATNLAEGVPSRFSGSGSGTDFTLTISSLQPEDFATYYCQHFWGTPYTFGQGTKLEIK

Kd [10]: 64.3 nM
koff [10]: 0.00514 s⁻¹
kon [10]: 80000 M⁻¹ s⁻¹
B7: hCD112R-ECD-mFc WT (Fc fusion, human, UniProt Q6DKI7 42-172, looked up)
chain: T2 sequence (looked up)
notes: range 42-172; also called WT hCD112R; wildtype (WT) hCD112R protein; not shown: Fc domain of mouse IgG2a

Source: patent US20260152555A1 (HUAHUI HEALTH, published 2026)
